For data set [1], the system named is C[C@@H]1O[C@H](OP(=O)(O)O)[C@@H](O)[C@H](O)[C@@H]1O. Put plainly: purified protein. The settings on record: co-substrate GTP, 50 mM Hepes pH 7.5, 2 mM MgCl2.
Data set [2] deals with the molecule itself. The experiment in a line: AUC + SEC-MALS; SV-AUC at 20 °C, about 0.5 mg/ml, 50 mM Tris pH 8.0, 150 mM NaCl, 40,000 rpm; SEC-MALS at 1 mg/ml in 50 mM Tris pH 8.0, 150 mM NaCl, ENrich SEC 650 column.
Where [3] appears, read: GDP-fucose pyrophosphorylase site.

What is called Km is the substrate concentration at which the rate is half of its maximum. Consider SUMO-FKP-NTD (Bacteroides fragilis), for which, in data set [1], the Km worked out at 80 ± 8 µM.

Broadly, the kcat is the number of substrate molecules converted per active site and unit of time at saturation. A word on the kcat/Km: it is the turnover number divided by the Michaelis constant. In the case of “FKP-FL (L-fucokinase/GDP-β-L-fucose pyrophosphorylase, full length) (Bacteroides fragilis)”, in data set [1] (setting [3]), the Km turned out to be 40 ± 4 µM, the kcat is 5.6 ± 0.3 s⁻¹ and the kcat/Km turned out to be 140000 M⁻¹ s⁻¹.

B1: C-terminal domain of FKP (FKP-CTD), individually prepared (domain or fragment, Bacteroides fragilis 9343, UniProt Q58T34 518-949, looked up)
chain: MPELLPEDALQMSRIHNRMLRARILKLDGKDYRPEEQAAFDLLRDGLLDGISNRKSTPKLDVYSDQIVWGRSPVRIDMAGGWTDTPPYSLYSGGNVVNLAIELNGQPPLQVYVKPCKDFHIVLRSIDMGAMEIVSTFDELQDYKKIGSPFSIPKAALSLAGFAPAFSAVSYASLEEQLKDFGAGIEVTLLAAIPAGSGLGTSSILASTVLGAINDFCGLAWDKNEICQRTLVLEQLLTTGGGWQDQYGGVLQGVKLLQTEAGFAQSPLVRWLPDHLFTHPEYKDCHLLYYTGITRTAKGILAEIVSSMFLNSSLHLNLLSEMKAHALDMNEAIQRGSFVEFGRLVGKTWEQNKALDSGTNPPAVEAIIDLIKDYTLGYKLPGAGGGGYLYMVAKDPQAAVRIRKILTENAPNPRARFVEMTLSDKGFQVSRS
notes: L-fucokinase/GDP-fucose pyrophosphorylase (FKP), Bacteroides fragilis 9343, GenBank AY849806, C-terminal domain 518-949 (the abstract says 519-949); The calculated mass is printed as 49 kDa; The abstract gives 519-949, the results 518-949; source: E. coli BL21 (DE3), purified (HiTrap chelating HP, Superdex 200 gel filtration)
As a reminder, the stoichiometry N is the number of molecules, sites or subunits per partner or assembly. In the case of B1, the “stoichiometry N” value in data set [2] was 2.

B2: full-length L-fucokinase/GDP-β-L-fucose pyrophosphorylase (FKP-FL) from Bacteroides fragilis 9343 (enzyme, UniProt Q58T34 1-949, looked up)
chain: MQKLLSLPSNLVQSFHELERVNRTDWFCTSDPVGKKLGSGGGTSWLLEECYNEYSDGATFGEWLEKEKRILLHAGGQSRRLPGYAPSGKILTPVPVFRWERGQHLGQNLLSLQLPLYEKIMSLAPDKLHTLIASGDVYIRSEKPLQSIPEADVVCYGLWVDPSLATHHGVFASDRKHPEQLDFMLQKPSLAELESLSKTHLFLMDIGIWLLSDRAVEILMKRSHKESSEELKYYDLYSDFGLALGTHPRIEDEEVNTLSVAILPLPGGEFYHYGTSKELISSTLSVQNKVYDQRRIMHRKVKPNPAMFVQNAVVRIPLCAENADLWIENSHIGPKWKIASRHIITGVPENDWSLAVPAGVCVDVVPMGDKGFVARPYGLDDVFKGDLRDSKTTLTGIPFGEWMSKRGLSYTDLKGRTDDLQAVSVFPMVNSVEELGLVLRWMLSEPELEEGKNIWLRSEHFSADEISAGANLKRLYAQREEFRKGNWKALAVNHEKSVFYQLDLADAAEDFVRLGLDMPELLPEDALQMSRIHNRMLRARILKLDGKDYRPEEQAAFDLLRDGLLDGISNRKSTPKLDVYSDQIVWGRSPVRIDMAGGWTDTPPYSLYSGGNVVNLAIELNGQPPLQVYVKPCKDFHIVLRSIDMGAMEIVSTFDELQDYKKIGSPFSIPKAALSLAGFAPAFSAVSYASLEEQLKDFGAGIEVTLLAAIPAGSGLGTSSILASTVLGAINDFCGLAWDKNEICQRTLVLEQLLTTGGGWQDQYGGVLQGVKLLQTEAGFAQSPLVRWLPDHLFTHPEYKDCHLLYYTGITRTAKGILAEIVSSMFLNSSLHLNLLSEMKAHALDMNEAIQRGSFVEFGRLVGKTWEQNKALDSGTNPPAVEAIIDLIKDYTLGYKLPGAGGGGYLYMVAKDPQAAVRIRKILTENAPNPRARFVEMTLSDKGFQVSRS
notes: The calculated mass is printed as 108 kDa; also called L-fucokinase/GDP-fucose pyrophosphorylase; source: E. coli BL21 (DE3), purified (HiTrap chelating HP, Superdex 200 gel filtration)
As for B2, the “stoichiometry N” value in data set [2] was determined as 4.

Source of the values: paper PMC11982464, “Structural insight into the catalytic mechanism of the bifunctional enzyme L-fucokinase/GDP-fucose pyrophosphorylase” (The Journal of Biological Chemistry, 2025).
